In US20150266963A1 (ARGEN X B V, published 2015):

What was measured:
[1] = molecular target: T1, recombinant human CD70 (Flag-TNC-CD70) (human, UniProt P32970 39-193); assay: blocking ELISA; human Flag-TNC-CD70; competitor CD27-Fc
T1 construct: extracellular domain; Captured by anti-Flag mAb in ELISA; as 'recombinant human CD70' immobilised on Biacore CM5 chips; TNC is for trimerisation; also called recombinant CD70; human recombinant CD70; not shown: Flag tag and TNC trimerisation domain
T1 sequence (looked up): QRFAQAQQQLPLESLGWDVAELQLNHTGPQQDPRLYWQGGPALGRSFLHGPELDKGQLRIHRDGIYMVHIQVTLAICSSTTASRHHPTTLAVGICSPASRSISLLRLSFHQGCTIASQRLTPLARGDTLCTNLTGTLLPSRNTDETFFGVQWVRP
Protocol: (§1) In this assay, a microtiter plate (Nunc Maxisorb) was first coated with 100 μl anti-FLAG M2 monoclonal antibody (Sigma Aldrich, F3165) at 1250-fold dilution in PBS (to achieve a final concentration of approximately 3.5 μg/ml) overnight at 4° C. The plate was washed once with PBS-Tween and incubated at RT for 2 hours with 300 μl PBS-1% casein. The plate was washed a further three times with PBS-Tween. 100 μl of 5 ng/ml (80 pM) Flag-TNC-CD70 (The Journal of Immunology, 2009, 183: 1851-1861) diluted in PBS-0.1% casein was added to the plate and incubated at RT for 1 hour while shaking. The plate was washed five times with PBS-Tween. The CD70 mAb to be tested was added to the plate; various concentrations were achieved by diluting the stock antibody solution in PBS-0.1% casein. Immediately thereafter, 50 μl of 1 μg/ml (final concentration 6.5 nM) recombinant human CD27 Fc chimera (R&D systems 382-CD, MW=46.5 kDa) was added, and incubated at RT for 1 hour while shaking. The plate was washed five times with PBS Tween. 100 μl of biotinylated anti-CD27 (eBioscience 13-0271), diluted 500-fold in PBS-0.1% casein, was added, and the plate incubated at RT for a further hour, while shaking. The plate was washed five times with PBS Tween. […] 100 μl TMB was added to the plate and the OD at 620 nm was measured. […]

[2] = molecular target: T2, human CD70 expressed on the surface of cells (human, UniProt P32970 1-193); assay: FACS MFI at 37 C, HH cells; reference SGN70
T2 construct: whole, on cells; also called cell surface expressed CD70; CD70 on cells
T2 sequence (looked up): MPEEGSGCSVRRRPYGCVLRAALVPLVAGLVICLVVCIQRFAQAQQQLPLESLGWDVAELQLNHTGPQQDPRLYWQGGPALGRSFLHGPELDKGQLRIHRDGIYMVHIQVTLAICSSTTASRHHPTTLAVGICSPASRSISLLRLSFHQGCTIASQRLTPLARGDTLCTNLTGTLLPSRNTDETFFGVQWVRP
Protocol: (§2) Several cancer cell lines were tested by FACS analysis for binding of ARGX-110 and SGN70 (described in US2010/0129362) at saturating mAb concentrations (at least 2 μg/ml). This was either done at 4° C. (1 hour incubation of cells with mAbs) or at 37° C. (15 minutes incubation of cells with mAbs). Binding was detected using anti-hIgG1-Fc-FITC (AF006, Binding Site) or anti-hIgG1-Fc-PE antibody (eBioscience, 12-4998). Fluorescence was measured using a flow cytometer.

[3] = molecular target: T2, human CD70 expressed on the surface of …; assay: FACS MFI at 37 C, U266 cells; reference SGN70
Protocol: as §2

[4] = molecular target: T1, recombinant human CD70 (Flag-TNC-CD70); assay: blocking ELISA; competitor CD27-Fc; references SGN70 and MDX1411
Protocol: as §1

[5] = molecular target: T1, recombinant human CD70 (Flag-TNC-CD70); assay: ELISA; Flag-TNC-CD70 captured by anti-Flag mAb; anti-human-Fc-HRP
Protocol: (§3) A Maxisorb (Nunc) microtiter plate was coated with 3.5 μg/ml mouse M2 anti-Flag mAb (Sigma Aldrich, F3165) and the different chimeras were captured. A dilution series of the CD70 mAbs to be tested was applied starting at a concentration of 10 μg/ml and making 3-fold dilutions. After 2 hours, binding was detected using anti-human-Fc-HRP at a 16000-fold dilution. Staining was done with ABTS and OD at 405 nm was measured. As a positive control, CD27-Fc was applied which is able to bind to both human and mouse CD70 with good affinity as well as to the chimeric human-mouse CD70 variants.

[6] = molecular target: T2, human CD70 expressed on the surface of …; assay: FACS MFI at 37 C, A498 cells; reference SGN70
Protocol: as §2

[7] = molecular target: T3, human-mouse CD70 chimera chim-2.2 (Flag-TNC-CD70); assay: ELISA; chimera captured by anti-Flag mAb; anti-human-Fc-HRP
T3 construct: also called chimera 2.2; not shown: N-terminal Flag tag, TNC trimerisation domain and any linkers of the Flag-TNC-CD70 construct
T3 chain: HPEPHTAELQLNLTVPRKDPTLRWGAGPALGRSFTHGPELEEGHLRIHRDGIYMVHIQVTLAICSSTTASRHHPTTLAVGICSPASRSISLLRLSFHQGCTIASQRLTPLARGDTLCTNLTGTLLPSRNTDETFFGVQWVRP
Protocol: as §3

IC50 [1]: 0.039 µg/mL
Signal in FACS of ARGX-110/signal in FACS of SGN70 [2]: 1.7 ratio
Signal in FACS of ARGX-110/signal in FACS of SGN70 [3]: 0.8 ratio
fold more potent in blocking than the two benchmark mAbs [4]: ~100 fold
EC50 [5]: 0.022 µg/mL
Signal in FACS of ARGX-110/signal in FACS of SGN70 [6]: 1 ratio
EC50 [7]: 0.016 µg/mL
B1: ARGX-110 (non-fucosylated 41D12 human IgG1) (antibody, V domains shown)
VH: EVQLVESGGGLVQPGGSLRLSCAASGFTFSVYYMNWVRQAPGKGLEWVSDINNEGGTTYYADSVKGRFTISRDNSKNSLYLQMNSLRAEDTAVYYCARDAGYSNHVPIFDSWGQGTLVTVSS
VL: QAVVTQEPSLTVSPGGTVTLTCGLKSGSVTSDNFPTWYQQTPGQAPRLLIYNTNTRHSGVPDRFSGSILGNKAALTITGAQADDEAEYFCALFISNPSVEFGGGTQLTVLG
notes: also called 41D12 (ARGX-110)
